Test results taken from article PMC4665922, “Comparative assessment of native and heterologous 2-oxo acid decarboxylases for application in isobutanol production by Saccharomyces cerevisiae” (Biotechnology for Biofuels, 2015).

Tests used:
Assay in all cases: cells, lysate or membranes
Type in all cases: biochemical, Lactococcus lactis
[1] = substrate: CC[C@H](C)C(=O)C(=O)O; conditions: cell extract of ammonium-grown cells, pH 7.0, 30 °C, 0.2 mM thiamine pyrophosphate, 5 mM MgCl2
[2] = substrate: CC(C)CC(=O)C(=O)O; conditions: cell extract of ammonium-grown cells, pH 7.0, 30 °C, 0.2 mM thiamine pyrophosphate, 5 mM MgCl2
[3] = substrate: CC(C)C(=O)C(=O)O; conditions: cell extract of ammonium-grown cells, pH 7.0, 30 °C, 0.2 mM thiamine pyrophosphate, 5 mM MgCl2, cooperative, Hill equation

B1: KivD (Lactococcus lactis subsp. lactis) (protein)
chain: MYTVGDYLLDRLHELGIEEIFGVPGDYNLQFLDQIISHKDMKWVGNANELNASYMADGYARTKKAAAFLTTFGVGELSAVNGLAGSYAENLPVVEIVGSPTSKVQNEGKFVHHTLADGDFKHFMKMHEPVTAARTLLTAENATVEIDRVLSALLKERKPVYINLPVDVAAAKAEKPSLPLKKENSTSNTSDQEILNKIQESLKNAKKPIVITGHEIISFGLEKTVTQFISKTKLPITTLNFGKSSVDEALPSFLGIYNGTLSEPNLKEFVESADFILMLGVKLTDSSTGAFTHHLNENKMISLNIDEGKIFNERIQNFDFESLISSLLDLSEIEYKGKYIDKKQEDFVPSNALLSQDRLWQAVENLTQSNETIVAEQGTSFFGASSIFLKSKSHFIGQPLWGSIGYTFPAALGSQIADKESRHLLFIGDGSLQLTVQELGLAIREKINPICFIINNDGYTVEREIHGPNQSYNDIPMWNYSKLPESFGATEDRVVSKIVRTENEFVSVMKEAQADPNRMYWIELILAKEGAPKVLKKMGKLFAEQNKS
notes: full-length ORF, codon optimised, no tag mentioned; TDH3 promoter plasmid pUDE336 in S. cerevisiae IME262 (pdc1 pdc5 pdc6 aro10 deleted); cell extract
Km [1]: 12.9 ± 2.87 mM
Vmax [1]: 0.05 µmol/min/mg
Vmax/Km [1]: 3.9 µL/min/mg
Km [2]: 2.42 ± 0.90 mM
Vmax [2]: 0.04 µmol/min/mg
Vmax/Km [2]: 17 µL/min/mg
K0.5 [3]: 7.73 ± 1.62 mM
Vmax [3]: 0.03 µmol/min/mg
Vmax/Km [3]: 3.9 µL/min/mg
